According to patent US20240352127A1:

Assays:
[1] = target: human PD-L1 on cells (human) (UniProt Q9NZQ7); assay: FACS staining of HCT116 cells with control antibody (expression profile), triplicates
[2] = target: human PD-L1 on cells (human) (UniProt Q9NZQ7); assay: FACS staining of MDA-MB-231 cells with control antibody (expression profile), triplicates

Sequence of human PD-L1 on cells (human) (Q9NZQ7 19-290 limits assumed): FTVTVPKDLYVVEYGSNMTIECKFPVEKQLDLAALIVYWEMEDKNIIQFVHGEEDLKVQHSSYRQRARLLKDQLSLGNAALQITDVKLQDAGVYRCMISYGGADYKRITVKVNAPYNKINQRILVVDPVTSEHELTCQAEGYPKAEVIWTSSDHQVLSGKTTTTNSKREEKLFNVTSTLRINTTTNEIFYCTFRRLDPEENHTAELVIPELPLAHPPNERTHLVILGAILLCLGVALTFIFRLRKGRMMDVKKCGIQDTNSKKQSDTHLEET

MFI [1]: 10900 MFI
MFI [2]: 74600 MFI
Substance: anti-PD-L1 RG7446 MPDL3280A (antibody)
